In general, Kd refers to the concentration at which binding is half-saturated. Read a high Kd as a looser complex.

The target in this experiment is CY5 fluorescently labeled CAS9 protein (S. pyogenes) (UniProt Q99ZW2). As to the kind of experiment: fluorescence titration; 5 nM CY5-CAS9 titrated with peptide, quadratic fit.

Bounds are passed on as bounds.

For CADY (peptide), the Kd was over 100 nM.
